Measured values taken from patent US20190241662A1 (ADAGENE, published 2019).
Substitutions are numbered along the chain they refer to.

B1: TY21691 (antibody, V domains shown)
VH: EVQLVESGGGLVQPGGSLRLSCAASGFTFSDYAIHWVRQAPGKGLEWIGIISPSGGSTKYAQKFQGRVTISRDNSKNTLYLQLNSLRAEDTAVYYCARLGYGYFDVWGQGTLVTVSS
VL: DIQLTQSPSSLSASVGDRVTITCRASQSVDFYGISFLHWYQQKPGKAPKLLIYDASSLESGVPSRFSGSGSGTDFTLTISSLQPEDFATYYCVQALQLPLTFGQGTKVEIK
notes: human IgG1 (hIgG1) from Fab hit B15736
B2: TY21585 (antibody, V domains shown)
VH: EVQLVESGGGLVQPGGSLRLSCAASGFTFSDYAIHWVRQAPGKGLEWIGIISPSSGSTNYAQKFQGRVTISRDNSKNTLYLQLNSLRAEDTAVYYCARDIHSGSSGYYYGFDVWGQGTLVTVSS
VL: DIQLTQSPSSLSASVGDRVTITCRASESVDFFGISFLAWYQQKPGKAPKLLIYDASNRATGIPSRFSGSGSGTDFTLTISSLQPEDFATYYCQHYTSSPPVYTFGQGTKVEIK
notes: human IgG1 (hIgG1) from Fab hit B15709
B3: TY21591 (antibody, V domains shown)
VH: EVQLVESGGGLVQPGGSLRLSCAASGFSLSTGGVAVSWIRQAPGKGLEWIGEIYHSGSTYYSPSLKSRVTISRDNSKNTLYLQLNSLRAEDTAVYYCARRIATATYFDYWGQGTLVTVSS
VL: DIQLTQSPSSLSASVGDRVTITCRASQTVFSRYLAWYQQKPGKAPKLLIYDASNRATGIPSRFSGSGSGTDFTLTISSLQPEDFATYYCQQSYYWPPWTFGQGTKVEIK
notes: human IgG1 (hIgG1) from Fab hit B15756
B4: TY21687 (antibody, V domains shown)
VH: EVQLVESGGGLVQPGGSLRLSCAASGFTFSGYAIHWVRQAPGKGLEWIGIISPSGGGTKYAQKFQGRVTISRDNSKNTLYLQLNSLRAEDTAVYYCARHPFAYWGQGTLVTVSS
VL: B2 VL with E27Q, F32Y, A38D, H94Q, T96V, V101E
notes: human IgG1 (hIgG1) from Fab hit B15700

biological target: T1, human PD1 on HEK293F cells (human, UniProt Q15116 25-288); test: flow cytometry, transfected HEK293F cells
T1 construct: whole, on cells
T1 sequence (Q15116 25-288): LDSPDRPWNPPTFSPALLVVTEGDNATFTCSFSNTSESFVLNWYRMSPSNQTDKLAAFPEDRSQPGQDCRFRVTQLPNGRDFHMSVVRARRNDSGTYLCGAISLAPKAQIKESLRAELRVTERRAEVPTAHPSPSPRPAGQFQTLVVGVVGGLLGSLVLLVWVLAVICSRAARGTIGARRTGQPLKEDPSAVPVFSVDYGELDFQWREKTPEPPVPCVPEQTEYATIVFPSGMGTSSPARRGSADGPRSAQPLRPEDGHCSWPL
Protocol: Antibody selectivity was next examined. Human CTLA4, PD1, LAG3, Tim3, B7H3, CD95, TNFR1, OX40, CD40, PD-L1, BLTA, VISTA, PDL2, ICOS and B7H4 were transiently overexpressed on the surface of HEK293F cells. Transfected cells were washed in pre-chilled 1×PBSA buffer (1.76 mM KH2PO4, 10.14 mM Na2HPO4.12H2O, 2.68 mM KCl, 136.89 mM NaCl and 1% BSA), then incubated with 100 nM test antibodies for 1 hour on ice. Cells were washed once with staining buffer, and Alexa Fluor® 647 conjugated mouse anti-human FC antibodies were added and incubated for 30 minutes on ice, protected from light. Samples were washed once with staining buffer prior to analysis by flow cytometry.

Question: Does B1 bind?
Answer: no binding (tested: 100 nM)

Question: Does B2 bind?
Answer: no binding (tested: 100 nM)

biological target: T2, recombinant human CTLA4 protein (construct not stated) (human, UniProt P16410 36-162, limits assumed); test: SPR (Biacore T200), IgG captured by anti-human Fc
T2 construct: also called biotinylated human CTLA4; human recombinant CTLA4 proteins
T2 sequence (looked up): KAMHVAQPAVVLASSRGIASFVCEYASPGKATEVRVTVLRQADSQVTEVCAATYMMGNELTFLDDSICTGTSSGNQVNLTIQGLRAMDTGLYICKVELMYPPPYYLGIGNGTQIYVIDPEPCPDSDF
Text: (§1) Binding affinity and kinetics of antibodies against human, monkey and mouse CTLA4 were examined (Table 4) by surface plasmon resonance (SPR) analysis using a Biacore™ T200 instrument (Biacore AB, Uppsala, Sweden) according to the manufacturer's guidelines. Anti-Human IgG (Fc) antibody from Human Antibody Capture Kit (GE BR-1008-39) was immobilized on CM5 chips by coupling of its amine groups onto carboxylated surfaces of sensor chips according to the instructions of an Amine Coupling kit (GE Biacore #BR-1000-50). […] The association and dissociation curves were fitted to a 1:1 Langmuir binding model using Biacore T200 Evaluation Software (Biacore AB) according to the manufacturer's guidelines.

Question: Which Kd does the source give for B1 here?
Answer: 2.08 nM

Question: B3 was tested. Which Kd did it give?
Answer: 9.68 nM

Question: How did the Kd turn out when B4 was run?
Answer: 1.82 nM

Question: B2 was tested. Which Kd did it give?
Answer: 8.15 nM

biological target: T3, monkey CTLA4 (SPR analyte, construct not stated) (monkey, UniProt G7PL88 36-161); test: SPR (Biacore T200), IgG captured by anti-human Fc
T3 sequence: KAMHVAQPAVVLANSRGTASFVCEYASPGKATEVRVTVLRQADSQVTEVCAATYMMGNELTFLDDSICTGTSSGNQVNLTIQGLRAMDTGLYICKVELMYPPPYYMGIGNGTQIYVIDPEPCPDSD
Text: as §1

Question: B1 was tested. Which Kd did it give?
Answer: 2.44 nM

Question: B3 was tested. Which Kd did it give?
Answer: 3.27 nM

Question: For B4, which Kd is on record?
Answer: 1.52 nM

Question: How did the Kd turn out when B2 was run?
Answer: 8.26 nM

biological target: mouse CTLA4 (SPR analyte, construct not stated) (mouse, UniProt P09793 36-162, limits assumed); test: SPR (Biacore T200), IgG captured by anti-human Fc
Text: as §1

Question: With B1 as the binder, how does the Kd read?
Answer: 1.46 nM

Question: Which Kd does the source give for B4 here?
Answer: 2.76 nM

Question: How did the Kd turn out when B2 was run?
Answer: 1.71 nM

biological target: T4, recombinant human CTLA4 fused with human Fc and His tag (human, UniProt P16410 36-162, limits assumed); test: competition ELISA: plate-bound human CTLA4-Fc-His, biotinylated CD80 as blocked ligand
T4 construct: Coated in the CD80 ELISA, biotinylated and in solution in the CD86 ELISA; also called biotinylated human CTLA4 fused with human FC and His tag
T4 sequence (looked up): T2 sequence (looked up)
Protocol: Antibodies were then tested for their ability to block binding of CTLA4 to its cognate ligands CD80 and CD86 by ELISA. […] Plates were blocked with PBS supplemented with 2% (w/v) skim milk at 37° C. for 1 hour. […] Plates were washed four times, and 100 μL HRP-neutravidin (1:1000) was added to each well and incubated at 37° C. for 1 hour. Plates were washed as previously described, and 50 μL TMB substrate solution was added and incubated at room temperature for 5 minutes before the reaction was stopped by 50 μL sulfate acid (2M).

Question: Which “IC50 (read off the curve)” value does the source give for B1 here?
Answer: ~20 nM

Question: How did the “IC50 (read off the curve)” value turn out when B3 was run?
Answer: ~10 nM

Question: How did the “IC50 (read off the curve)” value turn out when B4 was run?
Answer: ~20 nM

Question: For B2, which “IC50 (read off the curve)” value is on record?
Answer: ~10 nM

biological target: T4, recombinant human CTLA4 fused with …; test: competition ELISA: plate-bound human CD86-Fc, biotinylated human CTLA4-Fc-His in solution
Protocol: Plates were blocked with PBS supplemented with 2% (w/v) skim milk at 37° C. for 1 hour. […] Plates were washed four times, and 100 μL HRP-neutravidin (1:1000) were added to each well and incubated at 37° C. for 1 hr. Plates were washed as previously described, and 50 μL TMB substrate solution was added and incubated at room temperature for 5 minutes before the reaction was stopped by 50 μL sulfate acid (2M).

Question: Which “IC50 (read off the curve)” value does the source give for B1 here?
Answer: ~20 nM

Question: B4 was tested. Which “IC50 (read off the curve)” value did it give?
Answer: ~10 nM

biological target: T5, recombinant human CTLA4-Fc (human, UniProt P16410 36-162); test: ELISA, coated human CTLA4-Fc
T5 construct: also called human CTLA4 fused with human FC fragment; CTLA4-Fc (Sino Biological, 11159-H03H)
T5 sequence (looked up): T2 sequence (looked up)
Protocol: (§2) The ability of certain IgG antibodies to bind to soluble human (FIG. 1A, Table 5A) or canine (FIG. 1B, Table 5B) CTLA4 was next tested. 1 μg/mL human CTLA4 fused with human FC fragment, or canine CTLA4 fused with His tag, were prepared and used to coat an ELISA plate at 2-8° C. overnight. After blocking, 100 μL serial diluted IgG antibodies were added and incubated at 37° C. for 1 hour. Plates were washed for four times and then incubated with HRP-anti human IgG (Fab specific) (1:6000 dilution) at 37° C. for 1 hour. Plates were washed again four times and incubated with TMB substrate for 15 minutes at room temperature. […] The data was analyzed by Graphpad Prism 6 with nonlinear fitting.

Question: For B3, which EC50 is on record?
Answer: 0.831 nM

Question: And the Kd?
Answer: 0.83 nM

Question: What about the LogEC50 of the same binder?
Answer: -9.08

Question: Which EC50 does the source give for B4 here?
Answer: 0.32 nM

Question: What about the Kd of the same binder?
Answer: 0.32 nM

Question: What about the LogEC50 of the same binder?
Answer: -9.49

Question: What does the source list for B2?
Answer: EC50: 0.555 nM; Kd: 0.56 nM; LogEC50: -9.26

biological target: T6, canine CTLA4 fused with His tag (canine, UniProt Q9XSI1 36-162, limits assumed); test: ELISA, coated canine CTLA4-His
T6 construct: also called dog CTLA4
T6 sequence (looked up): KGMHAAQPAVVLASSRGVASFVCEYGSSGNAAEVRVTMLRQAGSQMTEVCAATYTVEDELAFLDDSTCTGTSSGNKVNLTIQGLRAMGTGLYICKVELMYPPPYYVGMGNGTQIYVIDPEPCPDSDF
Protocol: as §2

Question: Which results are given for B3?
Answer: EC50: 0.707 nM; Kd: 0.71 nM; LogEC50: -9.15

Question: B4 was tested. Which EC50 did it give?
Answer: 0.745 nM

Question: And the Kd?
Answer: 0.75 nM

Question: What about the LogEC50 of the same binder?
Answer: -9.13

Question: With B2 as the binder, how does the EC50 read?
Answer: 6.04 nM

Question: What about the Kd of the same binder?
Answer: 6.05 nM

Question: And the LogEC50?
Answer: -8.22
